In series [1] the target is T1, 3×FLAG-WHSC1 (Wolf-Hirschhorn syndrome candidate-1, FLAG-tagged) (human, UniProt O96028 1-1365).
T1 construct: Expressed in 293T cells by transfection; also called FLAG-tagged WHSC1; pCAGGS-n3FH-WHSC1; not shown: 3×FLAG tag from the pCAGGS-n3FH / n3FC vector
T1 sequence: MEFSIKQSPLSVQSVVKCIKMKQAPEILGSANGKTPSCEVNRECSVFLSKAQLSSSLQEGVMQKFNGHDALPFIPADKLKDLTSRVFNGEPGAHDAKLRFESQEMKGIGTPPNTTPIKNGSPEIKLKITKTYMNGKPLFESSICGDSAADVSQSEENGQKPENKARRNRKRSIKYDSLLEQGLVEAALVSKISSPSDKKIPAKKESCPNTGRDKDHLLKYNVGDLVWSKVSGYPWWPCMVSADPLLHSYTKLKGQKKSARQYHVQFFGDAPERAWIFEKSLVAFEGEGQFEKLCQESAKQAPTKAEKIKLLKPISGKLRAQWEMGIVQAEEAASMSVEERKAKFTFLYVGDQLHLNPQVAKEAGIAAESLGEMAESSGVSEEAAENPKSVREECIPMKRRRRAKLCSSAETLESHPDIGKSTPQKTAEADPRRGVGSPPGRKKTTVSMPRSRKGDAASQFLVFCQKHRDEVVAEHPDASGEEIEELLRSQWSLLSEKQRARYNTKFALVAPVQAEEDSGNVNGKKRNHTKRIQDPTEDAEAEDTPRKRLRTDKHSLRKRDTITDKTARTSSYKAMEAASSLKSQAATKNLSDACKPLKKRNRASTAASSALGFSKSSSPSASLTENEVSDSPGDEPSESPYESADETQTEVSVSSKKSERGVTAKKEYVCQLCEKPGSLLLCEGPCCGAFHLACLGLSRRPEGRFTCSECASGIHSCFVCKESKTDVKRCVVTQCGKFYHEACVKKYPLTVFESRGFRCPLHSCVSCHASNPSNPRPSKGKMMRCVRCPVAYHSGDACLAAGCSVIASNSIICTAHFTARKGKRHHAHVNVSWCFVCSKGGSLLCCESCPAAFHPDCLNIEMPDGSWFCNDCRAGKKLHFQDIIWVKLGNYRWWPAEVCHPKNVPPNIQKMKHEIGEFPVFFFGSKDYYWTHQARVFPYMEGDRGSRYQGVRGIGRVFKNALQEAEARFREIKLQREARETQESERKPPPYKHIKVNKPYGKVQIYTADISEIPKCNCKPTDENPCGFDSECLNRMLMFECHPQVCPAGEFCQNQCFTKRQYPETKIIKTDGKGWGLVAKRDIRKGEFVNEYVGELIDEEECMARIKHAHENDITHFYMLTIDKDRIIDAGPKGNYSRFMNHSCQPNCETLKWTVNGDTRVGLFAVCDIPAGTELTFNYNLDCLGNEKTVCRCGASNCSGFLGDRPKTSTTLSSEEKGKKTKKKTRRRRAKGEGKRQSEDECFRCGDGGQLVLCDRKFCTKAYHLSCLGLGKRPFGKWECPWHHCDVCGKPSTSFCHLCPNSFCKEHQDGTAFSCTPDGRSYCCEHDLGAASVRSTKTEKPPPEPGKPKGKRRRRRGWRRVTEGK
The series can be described thus: anti-HA immunoprecipitation from nuclear and cytoplasmic fractions of 293T cells co-transfected with HA-beta-catenin and 3×FLAG-WHSC1, then immunoblot. How it is done: [FIG. 5B-D](B) Silver staining pattern of interacting proteins with WHSC1. pCAGGS-n3FH-WHSC1 vectors were transfected into 293T cells. After 48 h, interacting protein partners of WHSC1 were enriched by anti-FLAG immunoprecipitation, separated by SDS-PAGE and silver stained. The different bands compared with a control lane were cut out and identified by mass spectrometry. Western blot was performed to confirm the expression of FLAG-WHSC1 using anti-FLAG antibody. (C) Immunoprecipitants from lysates of 293T cells using anti-FLAG M2 agarose (SIGMA) were immunoblotted with anti-FLAG (WHSC1), IQGAP1, TIAM1, AKT2 and beta-catenin antibodies. (D). HA-beta-catenin and 3×FLAG-WHSC1 vectores were transfected into 293T cells, and cell lysates were fractionated by NE-PER nuclear and cytoplasmic ex-traction kit (Thermo Sciecntific). Immunoprecipitants from fractionated lysates using anti-HA agarose (SIGMA) were immunoblotted with anti-FLAG and HA antibodies. UHRF1 was used as a marker of a nuclear protein, and Rho A was used a marker of a cytoplasmic protein.
Background: A western blot detects proteins with antibodies after separation by electrophoresis.

A further series addresses T2, beta-catenin.
T2 chain: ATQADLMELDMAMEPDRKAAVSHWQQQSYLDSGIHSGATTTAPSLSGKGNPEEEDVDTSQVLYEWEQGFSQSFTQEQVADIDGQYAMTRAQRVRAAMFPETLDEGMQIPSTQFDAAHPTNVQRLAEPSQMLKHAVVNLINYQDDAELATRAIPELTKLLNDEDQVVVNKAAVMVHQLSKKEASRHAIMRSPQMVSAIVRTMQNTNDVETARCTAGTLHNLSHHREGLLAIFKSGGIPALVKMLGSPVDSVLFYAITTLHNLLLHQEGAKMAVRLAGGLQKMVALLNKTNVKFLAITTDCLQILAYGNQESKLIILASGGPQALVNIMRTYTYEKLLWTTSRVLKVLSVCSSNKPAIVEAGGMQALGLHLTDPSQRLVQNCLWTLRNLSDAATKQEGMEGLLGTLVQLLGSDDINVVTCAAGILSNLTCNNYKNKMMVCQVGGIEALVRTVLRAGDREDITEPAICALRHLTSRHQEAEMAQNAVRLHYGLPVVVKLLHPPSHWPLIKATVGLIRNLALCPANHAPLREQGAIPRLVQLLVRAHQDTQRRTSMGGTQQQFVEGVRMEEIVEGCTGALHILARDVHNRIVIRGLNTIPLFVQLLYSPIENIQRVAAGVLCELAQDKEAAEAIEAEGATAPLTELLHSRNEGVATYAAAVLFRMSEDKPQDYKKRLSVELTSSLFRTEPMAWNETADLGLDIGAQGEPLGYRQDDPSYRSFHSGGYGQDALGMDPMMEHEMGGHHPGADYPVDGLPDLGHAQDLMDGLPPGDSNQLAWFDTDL

B1: HA-beta-catenin (other)
chain: MATQADLMELDMAMEPDRKAAVSHWQQQSYLDSGIHSGATTTAPSLSGKGNPEEEDVDTSQVLYEWEQGFSQSFTQEQVADIDGQYAMTRAQRVRAAMFPETLDEGMQIPSTQFDAAHPTNVQRLAEPSQMLKHAVVNLINYQDDAELATRAIPELTKLLNDEDQVVVNKAAVMVHQLSKKEASRHAIMRSPQMVSAIVRTMQNTNDVETARCTAGTLHNLSHHREGLLAIFKSGGIPALVKMLGSPVDSVLFYAITTLHNLLLHQEGAKMAVRLAGGLQKMVALLNKTNVKFLAITTDCLQILAYGNQESKLIILASGGPQALVNIMRTYTYEKLLWTTSRVLKVLSVCSSNKPAIVEAGGMQALGLHLTDPSQRLVQNCLWTLRNLSDAATKQEGMEGLLGTLVQLLGSDDINVVTCAAGILSNLTCNNYKNKMMVCQVGGIEALVRTVLRAGDREDITEPAICALRHLTSRHQEAEMAQNAVRLHYGLPVVVKLLHPPSHWPLIKATVGLIRNLALCPANHAPLREQGAIPRLVQLLVRAHQDTQRRTSMGGTQQQFVEGVRMEEIVEGCTGALHILARDVHNRIVIRGLNTIPLFVQLLYSPIENIQRVAAGVLCELAQDKEAAEAIEAEGATAPLTELLHSRNEGVATYAAAVLFRMSEDKPQDYKKRLSVELTSSLFRTEPMAWNETADLGLDIGAQGEPLGYRQDDPSYRSFHSGGYGQDALGMDPMMEHEMGGHHPGADYPVDGLPDLGHAQDLMDGLPPGDSNQLAWFDTDL
notes: Co-transfected with 3×FLAG-WHSC1 into 293T cells and precipitated with anti-HA agarose from nuclear and cytoplasmic fractions; also called HA-tagged beta-catenin; not shown: HA tag
B1: in series [1], the binding result was “binds”.

B2: WHSC1 (expressed from the pCAGGS-WHSC1 vector) (protein)
chain: T1 sequence
B2: in the series with beta-catenin, the “in vitro methyltransferase assay” value is on record as “no positive signals were observed (data not shown)”.

For the origin of these results see US20130137748A1 (ONCOTHERAPY SCIENCE, published 2013).
